27 molecules from patent publication US20240116985A1, “STAPLED PEPTIDES AND METHODS THEREOF” (priority 2020, published 2024) can be followed below.

Starred links: 1 amine or outer side, 2 acyl side, 3 side chain; linkers in the order of their positions; H or OH if unused. Positions of bridges follow the written chain, without caps; N, C: chain ends. Non-standard residues stand in square brackets, D forms with d. Primed or numbered codes have the meaning given here. B5(15) = 2-amino-2-(pent-4-en-1-yl)hept-6-enoic acid (2,2-bis(4-pentenyl)glycine), stitching residue bearing two staples, C=CCCCC(CCCC=C)(N[*:1])C(=O)[*:2]; PyrS2″ = (S)-3-amino-1-((pent-4-en-1-yloxy)carbonyl)pyrrolidine-3-carboxylic acid (stapling residue), C=CCCCOC(=O)N1CC[C@@](N[*:1])(C(=O)[*:2])C1; B5(18) = 2,2-bis(4-pentenyl)glycine (2-amino-2-(pent-4-en-1-yl)hept-6-enoic acid), stitching residue, C=CCCCC(CCCC=C)(N[*:1])C(=O)[*:2]; B5(23) = 2-amino-2-(pent-4-en-1-yl)hept-6-enoic acid (2,2-bis(4-pentenyl)glycine), stitching residue, C=CCCCC(CCCC=C)(N[*:1])C(=O)[*:2]; B5(4) = 2,2-bis(4-pentenyl)glycine = 2-amino-2-(pent-4-en-1-yl)hept-6-enoic acid (stitching residue), C=CCCCC(CCCC=C)(N[*:1])C(=O)[*:2]; B5(5) = 2,2-bis(4-pentenyl)glycine, 2-amino-2-(pent-4-en-1-yl)hept-6-enoic acid (stitching residue), C=CCCCC(CCCC=C)(N[*:1])C(=O)[*:2]; B5(21) = 2-amino-2-(pent-4-en-1-yl)hept-6-enoic acid, bis(4-pentenyl)glycine (stitching residue), C=CCCCC(CCCC=C)(N[*:1])C(=O)[*:2]; TfeGA = (S)-2-amino-3-((carboxymethyl)(2,2,2-trifluoroethyl)amino)propanoic acid, O=C([C@H](CN(CC(=O)[*:3])CC(F)(F)F)N[*:1])[*:2]; PyrS2 = (S)-3-amino-1-((pent-4-en-1-yloxy)carbonyl)pyrrolidine-3-carboxylic acid, C=CCCCOC(=O)N1CC[C@@](N[*:1])(C(=O)[*:2])C1; B5(25) = 2-amino-2-(pent-4-en-1-yl)hept-6-enoic acid (stitching residue), C=CCCCC(CCCC=C)(N[*:1])C(=O)[*:2]; EtGA = (S)-2-amino-3-((carboxymethyl)(ethyl)amino)propanoic acid, CCN(CC(=O)[*:3])C[C@H](N[*:1])C(=O)[*:2]; B5(3) = 2,2-bis(4-pentenyl)glycine (stitching residue), C=CCCCC(CCCC=C)(N[*:1])C(=O)[*:2]; B5 = 2-amino-2-(pent-4-en-1-yl)hept-6-enoic acid, C=CCCCC(CCCC=C)(N[*:1])C(=O)[*:2]; Phe(2-Cl) = N[C@@H](Cc1ccccc1Cl)C(=O)O; Bta = N[C@@H](Cc1csc2ccccc12)C(=O)O; αAllylPro = C=CC[C@@]1(C(=O)O)CCCN1; tBuAla = CC(C)(C)C[C@H](N)C(=O)O; 2Thi = N[C@@H](Cc1cccs1)C(=O)O; 3Thi = N[C@@H](Cc1ccsc1)C(=O)O; Cha = N[C@@H](CC1CCCCC1)C(=O)O; S8 = C=CCCCCCC[C@](C)(N)C(=O)O; hLeu = CC(C)CC[C@H](N)C(=O)O; hSer = N[C@@H](CCO)C(=O)O; Aib = CC(C)(N)C(=O)O

Experiment [1] concerns the target full-length beta-Catenin (Uniprot ID P35222) (Homo sapiens (Human)) (UniProt P35222). The experiment can be described thus: fluorescence polarization competition; displaces 5FAM-TCF4(10-53) from full-length beta-catenin.
Target sequence in this assay (P35222 2-781 limits assumed): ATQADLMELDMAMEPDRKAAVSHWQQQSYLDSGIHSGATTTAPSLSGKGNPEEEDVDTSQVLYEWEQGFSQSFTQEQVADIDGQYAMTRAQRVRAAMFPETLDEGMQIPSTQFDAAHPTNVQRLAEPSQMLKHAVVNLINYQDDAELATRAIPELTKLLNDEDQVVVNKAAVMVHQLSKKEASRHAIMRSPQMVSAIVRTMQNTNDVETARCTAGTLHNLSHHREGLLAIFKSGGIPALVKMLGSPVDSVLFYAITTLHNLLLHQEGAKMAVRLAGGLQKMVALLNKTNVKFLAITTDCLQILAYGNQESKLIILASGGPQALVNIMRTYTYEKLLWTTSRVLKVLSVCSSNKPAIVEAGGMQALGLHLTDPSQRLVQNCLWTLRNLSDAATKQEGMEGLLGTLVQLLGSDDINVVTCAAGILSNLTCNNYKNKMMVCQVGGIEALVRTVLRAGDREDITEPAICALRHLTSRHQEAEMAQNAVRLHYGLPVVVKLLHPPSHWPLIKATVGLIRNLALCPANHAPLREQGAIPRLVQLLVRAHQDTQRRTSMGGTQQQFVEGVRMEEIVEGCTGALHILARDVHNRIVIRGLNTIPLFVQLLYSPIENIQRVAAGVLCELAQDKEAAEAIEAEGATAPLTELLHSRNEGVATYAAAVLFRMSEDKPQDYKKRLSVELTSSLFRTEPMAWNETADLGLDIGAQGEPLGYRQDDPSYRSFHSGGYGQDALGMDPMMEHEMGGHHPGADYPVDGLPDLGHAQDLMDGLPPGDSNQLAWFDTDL
Experiment [2] has the same target. The experiment can be described thus: fluorescence polarization competition vs 5FAM-TCF4(10-53) on full-length beta-catenin.
Target sequence in this assay (P35222 2-781 limits assumed): as above
The target is the same in experiment [3]. The experiment can be described thus: fluorescence polarization competition; full-length beta-catenin with 5FAM-labeled TCF4 (10-53) probe as competitor.
Target sequence in this assay (P35222 whole entry, one chain of several): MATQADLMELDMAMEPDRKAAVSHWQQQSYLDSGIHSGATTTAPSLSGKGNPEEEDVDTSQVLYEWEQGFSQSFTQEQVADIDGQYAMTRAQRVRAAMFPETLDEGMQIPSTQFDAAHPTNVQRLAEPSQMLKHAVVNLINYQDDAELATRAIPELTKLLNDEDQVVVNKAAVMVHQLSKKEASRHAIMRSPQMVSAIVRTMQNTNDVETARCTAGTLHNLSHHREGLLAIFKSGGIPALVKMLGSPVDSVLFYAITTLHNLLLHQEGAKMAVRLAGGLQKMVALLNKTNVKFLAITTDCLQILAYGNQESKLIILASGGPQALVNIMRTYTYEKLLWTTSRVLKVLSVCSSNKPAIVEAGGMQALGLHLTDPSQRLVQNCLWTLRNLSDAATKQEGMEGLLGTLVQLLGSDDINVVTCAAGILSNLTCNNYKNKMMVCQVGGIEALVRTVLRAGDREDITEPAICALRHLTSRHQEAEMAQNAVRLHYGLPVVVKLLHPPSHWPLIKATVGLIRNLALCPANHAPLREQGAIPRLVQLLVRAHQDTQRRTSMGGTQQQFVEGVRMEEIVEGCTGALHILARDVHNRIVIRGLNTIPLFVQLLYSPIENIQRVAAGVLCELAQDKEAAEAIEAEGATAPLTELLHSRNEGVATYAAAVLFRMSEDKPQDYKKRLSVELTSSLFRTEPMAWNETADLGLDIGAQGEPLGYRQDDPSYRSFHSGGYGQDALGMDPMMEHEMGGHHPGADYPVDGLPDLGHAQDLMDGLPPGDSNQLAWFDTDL
Experiment [4] shares this target. The experiment can be described thus: fluorescence polarization competition; full-length beta-catenin, competitor 5FAM-TCF4(10-53) probe.
Experiment [5] shares this target. Nature of the experiment: fluorescence polarization competition; full-length beta-catenin; competitor 5FAM-TCF4(10-53) probe.
Target sequence in this assay (P35222 whole entry, one chain of several): as above
Experiment [6] shares this target. The experiment can be described thus: fluorescence polarization competition; 10 nM full-length beta-catenin + 10 nM 5FAM-TCF4(10-53) probe.
Target sequence in this assay (P35222 whole entry, one chain of several): as above
Experiment [7] addresses beta-catenin (Homo sapiens (Human)) (UniProt P35222). The experiment can be described thus: fluorescence polarization competition; full-length beta-catenin with 5FAM-TCF4(10-53) probe as competitor.
The target of experiment [8] is full-length beta-Catenin (Uniprot ID P35222) (Homo sapiens (Human)) (UniProt P35222). The experiment can be described thus: fluorescence polarization competition: peptide titrated against 10 nM full-length beta-catenin + 10 nM 5FAM-TCF4(10-53) probe.
Target sequence in this assay (P35222 2-781 limits assumed): as the sequence (P35222 2-781 limits assumed) above
For experiment [9] the target is unchanged. Nature of the experiment: cell-based or functional assay.
Target sequence in this assay (P35222 2-781 limits assumed): as above
Experiment [10] has the same target. Nature of the experiment: fluorescence polarization competition; displacement of 5FAM-TCF4(10-53) from full-length beta-catenin.
Target sequence in this assay (P35222 whole entry, one chain of several): as the sequence (P35222 whole entry, one chain of several) above
For experiment [11] the target is unchanged. The experiment can be described thus: fluorescence polarization competition; full-length beta-catenin with 5FAM-TCF4(10-53) probe as competitor.
Target sequence in this assay (P35222 2-781 limits assumed): as the sequence (P35222 2-781 limits assumed) above

Chain of beta-catenin (Homo sapiens (Human)) (P35222 whole entry): as the sequence (P35222 whole entry, one chain of several) above

B1: I-1538 (peptide)
peptide: Ac-[αAllylPro]D[hLeu][B5(15)]DEAAF[hSer][S8]F[Bta]Q-NH2
modifications: staple 1-4, 4-11; not fully specified; printed as Ac-PL3-Asp-Hleu-B5-Asp-Glu-Ala-Ala-Phe-Hse-S8-Phe-BztA-Gln-NH2
For B1, in experiment [1], the IC50 is 21 nM. Turning to Ac-[αAllylPro]D[tBuAla][B5(25)]D[EtGA]AAFS[PyrS2″][3Thi][Bta]Q-NH2 (staple 1-4, 4-11; also: earlier-eluting HPLC staple isomer) [I-966], the IC50 in experiment [2] was found to be 2020 nM. Also, the EC50 in experiment [3] worked out at 2020 nM. The molecule Ac-[αAllylPro]D[Cha][B5(21)]DTAAFT[PyrS2″][Phe(2-Cl)][Bta]Q-NH2 (staple 1-4, 4-11) [I-1175] came in with an IC50 in [4] of 24 nM. In [5], this molecule displayed an EC50 of 24 nM.

In turn, Ac-[αAllylPro]D[Cha][B5(21)]DTAAFL[PyrS2″][Phe(2-Cl)][Bta]Q-NH2 (staple 1-4, 4-11) [I-1176] showed a 50% inhibitory concentration (IC50) in experiment [4] of 169 nM. For the same molecule, in [5], the EC50 is 169 nM. In [1], Ac-[αAllylPro]D[tBuAla][B5(18)]DDAAFT[PyrS2″][Phe(2-Cl)][Bta]Q-NH2 (staple 1-4, 4-11) [I-1013] had an EC50 of 8 nM. Further, the IC50 in experiment [6] is 8 nM.

In experiment [1], Ac-[αAllylPro]D[hLeu][B5(15)]DEAAFL[S8]F[Bta]Q-NH2 (staple 1-4, 4-11) [I-1536] had an IC50 of 42 nM. Take Ac-[αAllylPro]D[tBuAla][B5(4)]DFAAFL[PyrS2″][3Thi][Bta]Q-NH2 (staple 1-4, 4-11) [I-1441]: in experiment [4], the IC50 amounted to 327 nM. Also, the EC50 in experiment [7] was found to be 327 nM.

B2: I-967 (peptide)
peptide: Ac-[αAllylPro]D[tBuAla][B5(25)]D[EtGA]AAFS[PyrS2″][3Thi][Bta]Q-NH2
modifications: staple 1-4, 4-11; not fully specified; printed as Ac-PL3-Asp-Npg-B5-Asp-EtGA-Ala-Ala-Phe-Ser-PyrS2-3Thi-BztA-Gln-NH2
Regarding B2, in experiment [2], the IC50 came out at 1740 nM. Moreover, in [3], the EC50 amounted to 1740 nM. Regarding Ac-[αAllylPro]D[tBuAla][B5(4)]DLAAFL[PyrS2″][3Thi][Bta]Q-NH2 (staple 1-4, 4-11) [I-1444], the IC50 in experiment [4] was 6560 nM. Moreover, the concentration giving a half-maximal response (EC50) in experiment [7] turned out to be 6560 nM. In [1], Ac-[αAllylPro]D[tBuAla][B5(5)]D[TfeGA]AIFN[PyrS2″][Phe(2-Cl)][Bta]Q-NH2 (staple 1-4, 4-11) [I-1005] returned an EC50 of 42 nM. The IC50 in experiment [6] was determined as 42 nM. The molecule Ac-[αAllylPro]D[tBuAla][B5(4)]D[EtGA]AAFS[PyrS2″][3Thi][Bta]S-NH2 (staple 1-4, 4-11; also: earlier eluting HPLC staple isomer) [I-974] yielded an IC50 in experiment [2] of 1780 nM. For the same molecule, in experiment [3], the EC50 is 1780 nM. The molecule Ac-[αAllylPro]D[tBuAla][B5(4)]DD[Aib]AFL[PyrS2″][3Thi][Bta]Q-NH2 (staple 1-4, 4-11) [I-1177] displayed an IC50 in [4] of 25 nM. The molecule further yielded an EC50 in experiment [5] of 25 nM.

In turn, Ac-[αAllylPro]D[tBuAla][B5(21)]DDA[Aib]FL[PyrS2″][3Thi][Bta]Q-NH2 (staple 1-4, 4-11) [I-1178] showed an IC50 in experiment [4] of 54.5 nM. Moreover, the concentration for a half-maximal effect (EC50) in [5] was found to be 54.5 nM.

Regarding Ac-[αAllylPro]D[tBuAla][B5(23)]NNAAFN[PyrS2][3Thi][Bta]Q-NH2 (staple 1-4, 4-11) [I-1555], the IC50 in experiment [1] was 180 nM. As for Ac-[αAllylPro]D[tBuAla][B5(25)]D[EtGA]AAFT[PyrS2″][3Thi][Bta]Q-NH2 (staple 1-4, 4-11; also: earlier-eluting HPLC staple isomer) [I-968], the IC50 in [2] came out at 2980 nM. Moreover, the EC50 in [3] worked out at 2980 nM. As for Ac-[αAllylPro]F[tBuAla][B5]DDAADN[PyrS2][3Thi][Bta]H-NH2 (staple 1-4, 4-11) [I-796], in [8], the EC50 was determined as 8140 nM. Ac-[αAllylPro]DI[B5(4)]DEAA[2Thi]Q[S8]F[Bta]Q-NH2 (staple 1-4, 4-11) [I-485] yielded a NanoBRET Abs IC50 in experiment [9] of 11300 nM. In experiment [10], the EC50 is 34 nM. This molecule showed an IC50 in experiment [11] of 34 nM. Molecule Ac-[αAllylPro]D[tBuAla][B5(5)]D[TfeGA]AFFN[PyrS2″][Phe(2-Cl)][Bta]Q-NH2 (staple 1-4, 4-11) [I-1003] yielded an EC50 in experiment [1] of 38 nM. The concentration for half-maximal inhibition (IC50) in experiment [6] came out at 38 nM.

With Ac-[αAllylPro]D[tBuAla][B5(18)]D[TfeGA]AKFN[PyrS2″][Phe(2-Cl)][Bta]Q-NH2 (staple 1-4, 4-11) [I-1006], the EC50 in experiment [1] is 5 nM. In experiment [6], the IC50 turned out to be 5 nM. Ac-[αAllylPro]D[tBuAla][B5(18)]DNAAFT[PyrS2″][Phe(2-Cl)][Bta]Q-NH2 (staple 1-4, 4-11) [I-1014] gave an EC50 in experiment [1] of 19 nM. Besides, the IC50 in experiment [6] came to 19 nM. Ac-[αAllylPro]D[Cha][B5(21)]DTAAFL[PyrS2″][3Thi][Bta]Q-NH2 (staple 1-4, 4-11) [I-1174] gave an IC50 in experiment [4] of 43 nM. This molecule returned an EC50 in experiment [5] of 43 nM. The molecule Ac-[αAllylPro]D[tBuAla][B5(5)][3Thi][TfeGA]AAFN[PyrS2″]D[Bta]Q-NH2 (staple 1-4, 4-11) [I-1001] had an EC50 in experiment [1] of 5530 nM. Moreover, the concentration for half-maximal inhibition (IC50) in experiment [6] was 7220 nM.

Take Ac-[αAllylPro]D[tBuAla][B5(4)]D[EtGA]AAFS[PyrS2″][3Thi][Bta]S-NH2 (staple 1-4, 4-11; also: later eluting HPLC staple isomer) [I-975]: the half-maximal inhibitory concentration (IC50) in experiment [2] amounted to 2240 nM. This molecule gave an EC50 in experiment [3] of 1710 nM. Turning to Ac-[αAllylPro]D[tBuAla][B5(21)]DD[Aib][Aib]FL[PyrS2″][3Thi][Bta]Q-NH2 (staple 1-4, 4-11; also: earlier eluting HPLC peak (staple isomer composition)) [I-1179], the IC50 in experiment [4] was 346 nM. The same molecule registered an EC50 in experiment [5] of 346 nM.

B3: I-969 (peptide)
peptide: Ac-[αAllylPro]D[tBuAla][B5(25)]D[EtGA]AAFT[PyrS2″][3Thi][Bta]Q-NH2
modifications: staple 1-4, 4-11; not fully specified; printed as Ac-PL3-Asp-Npg-B5-Asp-EtGA-Ala-Ala-Phe-Thr-PyrS2-3Thi-BztA-Gln-NH2
As to B3, the IC50 in experiment [2] turned out to be 2320 nM. The concentration for a half-maximal effect (EC50) in experiment [3] came out at 2320 nM.

B4: I-1537 (peptide)
peptide: Ac-[αAllylPro]D[hLeu][B5(15)]DEAAF[hSer][S8]F[Bta]Q-NH2
modifications: staple 1-4, 4-11; not fully specified; printed as Ac-PL3-Asp-Hleu-B5-Asp-Glu-Ala-Ala-Phe-Hse-S8-Phe-BztA-Gln-NH2
On to B4, for which, in experiment [1], the IC50 was 31 nM. As for Ac-[αAllylPro]D[tBuAla][B5(18)]DNAAFS[PyrS2″][Phe(2-Cl)][Bta]Q-NH2 (staple 1-4, 4-11) [I-1018], the EC50 in experiment [1] was 26 nM. Besides, the IC50 in [6] was determined as 26 nM.
